This sample holds only a part of the variants without activity.

The test system of one data set is biotinyl-Phe-oxazolone. The data set is described as follows: self-aminoacylation, catalytic enhancement (BFO) (fold over background); higher = more active; k-Seq, kA / k0A0; sequences stand for … in GGGAAUGGAUCCACAUCUACGAAUUC…UUCACUGCAGACUUGACGAAGCUG
Summed up: (§1)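 Catalytic enhancement equals the median kA over the uncatalyzed rate, the latter read from the low-activity peak of a bimodal Gaussian fit. Values of kA came from fitting each sequence's fraction reacted to a pseudo-first-order model, with 1000 bootstraps. Reacted RNA was captured with streptavidin and quantified by triplicate qPCR and Illumina sequencing after 90 minutes at room temperature with 2–1250 μM biotinyl-aminoacyl-oxazolone and 0.43 μM mutagenized RNA pools bearing a 21-nt variable region.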
For the sequence “AAGUUUGCUAAUAGUCGCCUG [Fam3.1 aminoacylation ribozyme variant]”, the self-aminoacylation was found to be 7.8.
For the sequence “AAGUUGGCUAAUAGUCGCCAG [Fam3.1 aminoacylation ribozyme variant]”, the self-aminoacylation stood at 2.1.
In the case of “AAGUUCGCUAAUAGUCGAAAG [Fam3.1 aminoacylation ribozyme variant]”, the self-aminoacylation amounted to 4.18.
Turning to “AUUGACCUAGGUCAUCGGGUC [Fam2.2 aminoacylation ribozyme variant]”, the self-aminoacylation stood at 3.83.
As to “AAGUUUGCUAAUAGUCGCAAA [Fam3.1 aminoacylation ribozyme variant]”, the self-aminoacylation was found to be 2.2.
As for “AUUCGCCUAGGUCAUCGGUUG [Fam2.2 aminoacylation ribozyme variant]”, the self-aminoacylation turned out to be 4.32.
Still for that read-out and setting: with “CGACUUCAAACAAUCGAUCUG [Fam1A.1 aminoacylation ribozyme variant]” the figure was 3.21; with “AAGGUUGCUUAUAGUCGCAAG [Fam3.1 aminoacylation ribozyme variant]”, 2.7.
Same read-out and setting: with “AAGGUAGCUAAUAGUCGCAAG [Fam3.1 aminoacylation ribozyme variant]” the figure was 3.35; with “GUACAUCAAACAAUCGGUCUG [Fam1A.1 aminoacylation ribozyme variant]”, 2.
On to “AUUCACCUACGUCAUCGGGUU [Fam2.2 aminoacylation ribozyme variant]”, for which the self-aminoacylation was found to be 2.52.
The same measure, in the same setting: to “CCACUGCAAACAAUCGGUCUG [Fam1A.1 aminoacylation ribozyme variant]” belongs 4.13.
The same measure, in the same setting: to “GAGUUUGCUAAUAGUCGCACG [Fam3.1 aminoacylation ribozyme variant]” belongs 3; to “AAGUUAGCUAAUAGUCGCAAU [Fam3.1 aminoacylation ribozyme variant]”, 2.2.
For “AAGUUAGCUAAUAGUCACAAG [Fam3.1 aminoacylation ribozyme variant]”, the self-aminoacylation came to 3.83.
On the same count and under the same terms, with “CUACUUCAAACAAUCGCUCUG [Fam1A.1 aminoacylation ribozyme variant]” the figure was 2.58.
Take “AAGUUUGCGGAUAGUCGCAAG [Fam3.1 aminoacylation ribozyme variant]”: the self-aminoacylation came to 2.73.
The same measure, in the same setting: with “AAGUUUACUAAUAGUUGCAAG [Fam3.1 aminoacylation ribozyme variant]” the figure was 2.19; with “AUGUUUGCUACUAGUCGCAAG [Fam3.1 aminoacylation ribozyme variant]”, 2.12; with “AUAACCCUGGUCGUCGAGUGA [Fam2.1 aminoacylation ribozyme variant]”, 2.78.
The same measure, in the same setting: to “CUACUGCAAACAAGCGGUCUG [Fam1A.1 aminoacylation ribozyme variant]” belongs 5.58.
For the sequence “CUACUCCAAACAAUCGGUUUG [Fam1A.1 aminoacylation ribozyme variant]”, the self-aminoacylation was 2.1.
The same measure, in the same setting: with “AUUCACCUAGGUCACCUGGUG [Fam2.2 aminoacylation ribozyme variant]” the figure was 8.5.
With “CCACACUUCAAGCAAUCGAUC [Fam1B.1 aminoacylation ribozyme variant]”, the self-aminoacylation was 2.02.
Turning to “AAAUUUGCUAAUAGUCGAAAG [Fam3.1 aminoacylation ribozyme variant]”, the self-aminoacylation came to 4.94.
The same measure, in the same setting: to “CUCCAUCAAACAAUCGGUCUG [Fam1A.1 aminoacylation ribozyme variant]” belongs 2.14; to “AAGUCUGCUAAUAGUCGCAAU [Fam3.1 aminoacylation ribozyme variant]”, 6.06.
Consider “CGACUGCAAACAAUCGGUCUG [Fam1A.1 aminoacylation ribozyme variant]”, for which the self-aminoacylation was determined as 6.2.
“AAGUUUGUUAAAAGUCGCAAG [Fam3.1 aminoacylation ribozyme variant]”: the self-aminoacylation amounted to 2.4.
On the same count and under the same terms, with “CUAUUUCAACCAAUCGGUCUG [Fam1A.1 aminoacylation ribozyme variant]” the figure was 2.27; with “AUACUUCAAACAAUCGGUCUA [Fam1A.1 aminoacylation ribozyme variant]”, 3.14; with “AAGUAUACUAAUAGUCGCAAG [Fam3.1 aminoacylation ribozyme variant]”, 2.34.
In the case of “AAUUUUGCUAAUAGUCACAAG [Fam3.1 aminoacylation ribozyme variant]”, the self-aminoacylation was 3.77.
Take “AAGUUUUCUAAUAGUCUCAAG [Fam3.1 aminoacylation ribozyme variant]”: the self-aminoacylation worked out at 2.15.
Take “CAACUUCACACAAUCGGUCUG [Fam1A.1 aminoacylation ribozyme variant]”: the self-aminoacylation amounted to 3.02.
Same read-out and setting: to “AUGUUUGCUCAUAGUCGCAAG [Fam3.1 aminoacylation ribozyme variant]” belongs 2.41.
Same read-out and setting: with “AUACUUCAAACAAUCUGUCUG [Fam1A.1 aminoacylation ribozyme variant]” the figure was 2.2; with “UCGUUUGCUAAUAGUCGCAAG [Fam3.1 aminoacylation ribozyme variant]”, 4.06.
Still for that read-out and setting: with “AUUCACCUAGGUCGUCGGGUC [Fam2.2 aminoacylation ribozyme variant]” the figure was 5.09; with “AAGUUUUCUAGUAGUCGCAAG [Fam3.1 aminoacylation ribozyme variant]”, 2.53.
With “AUUCACCUAGGUCUUCGUGUG [Fam2.2 aminoacylation ribozyme variant]”, the self-aminoacylation amounted to 5.39.
Same read-out and setting: with “GUACCUCAAACAAUCGGUCUG [Fam1A.1 aminoacylation ribozyme variant]” the figure was 2.42; with “GAGUUUGUUAAUAGUCGCAAG [Fam3.1 aminoacylation ribozyme variant]”, 2.36; with “CCACACAUCAAUCAAUCGGUC [Fam1B.1 aminoacylation ribozyme variant]”, 2.22.
Consider “CUACUGCAAACAAUCGGUGUG [Fam1A.1 aminoacylation ribozyme variant]”, for which the self-aminoacylation amounted to 3.44.
In the case of “AAGUUGGCUAAUAGUCGCUAG [Fam3.1 aminoacylation ribozyme variant]”, the self-aminoacylation was 2.22.
The same measure, in the same setting: to “GAGUUUGCUAAUCGUCGCAAG [Fam3.1 aminoacylation ribozyme variant]” belongs 2.55; to “AAGUUUGCUAAUAAUCGUAAG [Fam3.1 aminoacylation ribozyme variant]”, 3.54.
In the case of “AAAUUUGCUAAUAGUCUCAAG [Fam3.1 aminoacylation ribozyme variant]”, the self-aminoacylation was found to be 2.03.
For “AUUCACCUAGGUAAUCGAGUG [Fam2.2 aminoacylation ribozyme variant]”, the self-aminoacylation amounted to 2.87.
Consider “AAGAUUGCUAAUAGUCACAAG [Fam3.1 aminoacylation ribozyme variant]”, for which the self-aminoacylation turned out to be 2.63.
Take “AUUCUCCUAGGUCAUCGUGUG [Fam2.2 aminoacylation ribozyme variant]”: the self-aminoacylation worked out at 3.73.
Same read-out and setting: to “GAGUUUGCUAAUAGCCGCAAG [Fam3.1 aminoacylation ribozyme variant]” belongs 4.21.
The same measure, in the same setting: to “AAGUUUGCUAAUUGUCGCAAU [Fam3.1 aminoacylation ribozyme variant]” belongs 6.81; to “CUACUGCAAACAAUCGGUCCG [Fam1A.1 aminoacylation ribozyme variant]”, 6.96.
The same measure, in the same setting: to “CUACUUCAAACAAUCGGCCCG [Fam1A.1 aminoacylation ribozyme variant]” belongs 3.03.
On to “AUUACCCUGGUCAGCGAGUGC [Fam2.1 aminoacylation ribozyme variant]”, for which the self-aminoacylation is 8.87.
On the same count and under the same terms, to “AAGUUAGCUAAUAGUCGCACG [Fam3.1 aminoacylation ribozyme variant]” belongs 2.06.
On to “AUCUUUGCUAAUAGUCGCAAG [Fam3.1 aminoacylation ribozyme variant]”, for which the self-aminoacylation came to 2.44.
The same measure, in the same setting: to “AAGUUUACGAAUAGUCGCAAG [Fam3.1 aminoacylation ribozyme variant]” belongs 2.82.
For “AAGGUUACUAAUAGUCGCAAG [Fam3.1 aminoacylation ribozyme variant]”, the self-aminoacylation turned out to be 2.19.
On the same count and under the same terms, to “CUCCUUCAAACACUCGGUCUG [Fam1A.1 aminoacylation ribozyme variant]” belongs 6.18; to “CUACUUCAAACAAUCGGCCUU [Fam1A.1 aminoacylation ribozyme variant]”, 2.48; to “AAGGUUGCUAAUAGUCGCCAG [Fam3.1 aminoacylation ribozyme variant]”, 2.54.
On the same count and under the same terms, to “AUGUUUGCUAAUAGUCGCAAU [Fam3.1 aminoacylation ribozyme variant]” belongs 2.83.

In the next data set the test system is biotinyl-Trp-oxazolone. As to the kind of experiment: self-aminoacylation, catalytic enhancement (BWO) (fold over background); higher = more active; k-Seq, kA / k0A0; sequences stand for … in GGGAAUGGAUCCACAUCUACGAAUUC…UUCACUGCAGACUUGACGAAGCUG
Put shortly: as §1
In the case of “CCGCACUUCAAGCAAUCGGUA [Fam1B.1 aminoacylation ribozyme variant]”, the self-aminoacylation came out at 2.16.
Consider “AUUACCCUGGUCAUCCAGUAA [Fam2.1 aminoacylation ribozyme variant]”, for which the self-aminoacylation came out at 2.35.
In the case of “CUUCACCUAGGUCAUCGGGAG [Fam2.2 aminoacylation ribozyme variant]”, the self-aminoacylation worked out at 2.1.
Same read-out and setting: with “AUUACCCUGGUCAUGGAGUGG [Fam2.1 aminoacylation ribozyme variant]” the figure was 2.54; with “AAGAUUGAUAAUAGUCGCAAG [Fam3.1 aminoacylation ribozyme variant]”, 2.33.

The values are drawn from the supplement of paper PMC9233669.
